Consider 27 molecules from PMC10786891, “Massively parallel profiling of RNA-targeting CRISPR-Cas13d”.

Sequences and labels used below:
T1: EsCas13d, nuclease-dead (Eubacterium siraeum, UniProt B0MS50, R295A;H300A;R849A;H854A)
T1 sequence: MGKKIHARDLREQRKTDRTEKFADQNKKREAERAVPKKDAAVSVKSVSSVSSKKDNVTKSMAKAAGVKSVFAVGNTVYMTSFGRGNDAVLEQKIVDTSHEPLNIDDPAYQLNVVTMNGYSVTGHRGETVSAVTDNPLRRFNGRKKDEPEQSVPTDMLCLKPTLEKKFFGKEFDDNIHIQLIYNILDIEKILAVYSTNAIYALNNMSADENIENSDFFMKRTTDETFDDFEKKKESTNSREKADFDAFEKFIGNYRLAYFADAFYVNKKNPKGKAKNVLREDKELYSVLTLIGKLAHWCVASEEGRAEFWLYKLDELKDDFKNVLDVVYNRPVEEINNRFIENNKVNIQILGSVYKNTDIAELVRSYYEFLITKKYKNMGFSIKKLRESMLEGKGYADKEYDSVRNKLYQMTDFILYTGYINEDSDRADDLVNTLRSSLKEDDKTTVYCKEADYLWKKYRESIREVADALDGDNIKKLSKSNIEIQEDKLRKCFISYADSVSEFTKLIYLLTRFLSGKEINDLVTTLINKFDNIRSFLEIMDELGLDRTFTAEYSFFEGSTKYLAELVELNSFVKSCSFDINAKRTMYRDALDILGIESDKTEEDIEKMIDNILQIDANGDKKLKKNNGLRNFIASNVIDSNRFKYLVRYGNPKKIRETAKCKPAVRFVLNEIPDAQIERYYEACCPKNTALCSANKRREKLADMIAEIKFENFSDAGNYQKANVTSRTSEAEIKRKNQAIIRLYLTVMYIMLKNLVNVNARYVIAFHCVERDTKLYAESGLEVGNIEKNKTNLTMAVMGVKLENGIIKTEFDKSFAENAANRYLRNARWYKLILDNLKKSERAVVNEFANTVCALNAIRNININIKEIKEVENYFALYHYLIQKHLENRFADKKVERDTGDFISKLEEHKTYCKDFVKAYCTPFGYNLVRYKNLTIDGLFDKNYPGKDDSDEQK

B1: target 1 insC 3' of 15,insC 3' of 9 (mixed)
RNA 1: CACCCGUGCAAAAAUGCAGGGGUCUAAAACUGAGCGGAUAACCUCUCUAUGG
RNA 2: GGGAAUGGAUCCACAUCUACGAAUUCGUACCAUAGAGCAGGUUACUCCGCUCACCGAGAUCGGAAGAGCACACGU
B2: target 1 insA 3' of 21,insC 3' of 12 (mixed)
RNA 1: CACCCGUGCAAAAAUGCAGGGGUCUAAAACUGAGCGGAUAACCUCUCUAUGG
RNA 2: GGGAAUGGAUCCACAUCUACGAAUUCGUACCAAUAGAGAGGCUUAUCCGCUCACCGAGAUCGGAAGAGCACACGU
B3: target 1 insG 3' of 11,insU 3' of 1 (mixed)
RNA 1: CACCCGUGCAAAAAUGCAGGGGUCUAAAACUGAGCGGAUAACCUCUCUAUGG
RNA 2: GGGAAUGGAUCCACAUCUACGAAUUCGUACCAUAGAGAGGUGUAUCCGCUCAUCCGAGAUCGGAAGAGCACACGU
B4: target 1 insC 3' of 15,insU 3' of 4 (mixed)
RNA 1: CACCCGUGCAAAAAUGCAGGGGUCUAAAACUGAGCGGAUAACCUCUCUAUGG
RNA 2: GGGAAUGGAUCCACAUCUACGAAUUCGUACCAUAGAGCAGGUUAUCCGCUUCACCGAGAUCGGAAGAGCACACGU
B5: target 1 insA 3' of 17,insA 3' of 17 (mixed)
RNA 1: CACCCGUGCAAAAAUGCAGGGGUCUAAAACUGAGCGGAUAACCUCUCUAUGG
RNA 2: GGGAAUGGAUCCACAUCUACGAAUUCGUACCAUAGAAAGAGGUUAUCCGCUCACCGAGAUCGGAAGAGCACACGU
B6: target 1 insG 3' of 21,insU 3' of 12 (mixed)
RNA 1: CACCCGUGCAAAAAUGCAGGGGUCUAAAACUGAGCGGAUAACCUCUCUAUGG
RNA 2: GGGAAUGGAUCCACAUCUACGAAUUCGUACCGAUAGAGAGGUUUAUCCGCUCACCGAGAUCGGAAGAGCACACGU
B7: target 1 insA 3' of 19,insG 3' of 10 (mixed)
RNA 1: CACCCGUGCAAAAAUGCAGGGGUCUAAAACUGAGCGGAUAACCUCUCUAUGG
RNA 2: GGGAAUGGAUCCACAUCUACGAAUUCGUACCAUAAGAGAGGUUGAUCCGCUCACCGAGAUCGGAAGAGCACACGU
B8: target 1 U3A,U19C (mixed)
RNA 1: CACCCGUGCAAAAAUGCAGGGGUCUAAAACUGAGCGGAUAACCUCUCUAUGG
RNA 2: GGGAAUGGAUCCACAUCUACGAAUUCGUACCACAGAGAGGUUAUCCGCACACCGAGAUCGGAAGAGCACACGU
B9: target 1 insC 3' of 15,insA 3' of 3 (mixed)
RNA 1: CACCCGUGCAAAAAUGCAGGGGUCUAAAACUGAGCGGAUAACCUCUCUAUGG
RNA 2: GGGAAUGGAUCCACAUCUACGAAUUCGUACCAUAGAGCAGGUUAUCCGCUACACCGAGAUCGGAAGAGCACACGU
B10: target 1 C4G,C6A (mixed)
RNA 1: CACCCGUGCAAAAAUGCAGGGGUCUAAAACUGAGCGGAUAACCUCUCUAUGG
RNA 2: GGGAAUGGAUCCACAUCUACGAAUUCGUACCAUAGAGAGGUUAUCAGGUCACCGAGAUCGGAAGAGCACACGU
B11: target 1 insC 3' of 15,insU 3' of 2 (mixed)
RNA 1: CACCCGUGCAAAAAUGCAGGGGUCUAAAACUGAGCGGAUAACCUCUCUAUGG
RNA 2: GGGAAUGGAUCCACAUCUACGAAUUCGUACCAUAGAGCAGGUUAUCCGCUCUACCGAGAUCGGAAGAGCACACGU
B12: target 1 insC 3' of 22,insC 3' of 22 (mixed)
RNA 1: CACCCGUGCAAAAAUGCAGGGGUCUAAAACUGAGCGGAUAACCUCUCUAUGG
RNA 2: GGGAAUGGAUCCACAUCUACGAAUUCGUACCCCAUAGAGAGGUUAUCCGCUCACCGAGAUCGGAAGAGCACACGU
B13: target 1 U8G,G13U (mixed)
RNA 1: CACCCGUGCAAAAAUGCAGGGGUCUAAAACUGAGCGGAUAACCUCUCUAUGG
RNA 2: GGGAAUGGAUCCACAUCUACGAAUUCGUACCAUAGAGAUGUUAGCCGCUCACCGAGAUCGGAAGAGCACACGU
B14: target 1 C2U,A16U (mixed)
RNA 1: CACCCGUGCAAAAAUGCAGGGGUCUAAAACUGAGCGGAUAACCUCUCUAUGG
RNA 2: GGGAAUGGAUCCACAUCUACGAAUUCGUACCAUAGUGAGGUUAUCCGCUUACCGAGAUCGGAAGAGCACACGU
B15: target 1 C7U,A16U (mixed)
RNA 1: CACCCGUGCAAAAAUGCAGGGGUCUAAAACUGAGCGGAUAACCUCUCUAUGG
RNA 2: GGGAAUGGAUCCACAUCUACGAAUUCGUACCAUAGUGAGGUUAUUCGCUCACCGAGAUCGGAAGAGCACACGU
B16: target 1 insC 3' of 19,insG 3' of 19 (mixed)
RNA 1: CACCCGUGCAAAAAUGCAGGGGUCUAAAACUGAGCGGAUAACCUCUCUAUGG
RNA 2: GGGAAUGGAUCCACAUCUACGAAUUCGUACCAUCGAGAGAGGUUAUCCGCUCACCGAGAUCGGAAGAGCACACGU
B17: target 1 insU 3' of 22,insU 3' of 6 (mixed)
RNA 1: CACCCGUGCAAAAAUGCAGGGGUCUAAAACUGAGCGGAUAACCUCUCUAUGG
RNA 2: GGGAAUGGAUCCACAUCUACGAAUUCGUACUCAUAGAGAGGUUAUCCUGCUCACCGAGAUCGGAAGAGCACACGU
B18: target 1 G17A,C21U (mixed)
RNA 1: CACCCGUGCAAAAAUGCAGGGGUCUAAAACUGAGCGGAUAACCUCUCUAUGG
RNA 2: GGGAAUGGAUCCACAUCUACGAAUUCGUACUAUAAAGAGGUUAUCCGCUCACCGAGAUCGGAAGAGCACACGU
B19: target 1 insG 3' of 9,insA 3' of 7 (mixed)
RNA 1: CACCCGUGCAAAAAUGCAGGGGUCUAAAACUGAGCGGAUAACCUCUCUAUGG
RNA 2: GGGAAUGGAUCCACAUCUACGAAUUCGUACCAUAGAGAGGUUAGUCACGCUCACCGAGAUCGGAAGAGCACACGU
B20: target 1 G13U,A16G (mixed)
RNA 1: CACCCGUGCAAAAAUGCAGGGGUCUAAAACUGAGCGGAUAACCUCUCUAUGG
RNA 2: GGGAAUGGAUCCACAUCUACGAAUUCGUACCAUAGGGAUGUUAUCCGCUCACCGAGAUCGGAAGAGCACACGU
B21: target 1 insG 3' of 14,insU 3' of 1 (mixed)
RNA 1: CACCCGUGCAAAAAUGCAGGGGUCUAAAACUGAGCGGAUAACCUCUCUAUGG
RNA 2: GGGAAUGGAUCCACAUCUACGAAUUCGUACCAUAGAGAGGGUUAUCCGCUCAUCCGAGAUCGGAAGAGCACACGU
B22: target 1 insG 3' of 11,insC 3' of 11 (mixed)
RNA 1: CACCCGUGCAAAAAUGCAGGGGUCUAAAACUGAGCGGAUAACCUCUCUAUGG
RNA 2: GGGAAUGGAUCCACAUCUACGAAUUCGUACCAUAGAGAGGUGCUAUCCGCUCACCGAGAUCGGAAGAGCACACGU
B23: target 1 del11,del16 (mixed)
RNA 1: CACCCGUGCAAAAAUGCAGGGGUCUAAAACUGAGCGGAUAACCUCUCUAUGG
RNA 2: GGGAAUGGAUCCACAUCUACGAAUUCGUACCAUAGGAGGUAUCCGCUCACCGAGAUCGGAAGAGCACACGU
B24: target 1 del1,del2 (mixed)
RNA 1: CACCCGUGCAAAAAUGCAGGGGUCUAAAACUGAGCGGAUAACCUCUCUAUGG
RNA 2: GGGAAUGGAUCCACAUCUACGAAUUCGUACCAUAGAGAGGUUAUCCGCUCCGAGAUCGGAAGAGCACACGU
B25: target 1 U8G,C22G (mixed)
RNA 1: CACCCGUGCAAAAAUGCAGGGGUCUAAAACUGAGCGGAUAACCUCUCUAUGG
RNA 2: GGGAAUGGAUCCACAUCUACGAAUUCGUAGCAUAGAGAGGUUAGCCGCUCACCGAGAUCGGAAGAGCACACGU
B26: target 1 C7A,G12U (mixed)
RNA 1: CACCCGUGCAAAAAUGCAGGGGUCUAAAACUGAGCGGAUAACCUCUCUAUGG
RNA 2: GGGAAUGGAUCCACAUCUACGAAUUCGUACCAUAGAGAGUUUAUACGCUCACCGAGAUCGGAAGAGCACACGU
B27: target 1 A18U,A20G (mixed)
RNA 1: CACCCGUGCAAAAAUGCAGGGGUCUAAAACUGAGCGGAUAACCUCUCUAUGG
RNA 2: GGGAAUGGAUCCACAUCUACGAAUUCGUACCGUUGAGAGGUUAUCCGCUCACCGAGAUCGGAAGAGCACACGU

The target in this data set is T1, EsCas13d, nuclease-dead. Description: crRNA (strand 1, pre-loaded); Mg2+; 40 mM Tris-HCl pH 7.5, 150 mM NaCl, 6 mM MgCl2, 1 mM DTT, 0.1% Tween-20, 0.2 mg/ml BSA; 25 C; 10 min per concentration, then washed. The note with it: tags: His6-TwinStrep-SUMO cleaved; N-terminal SNAP kept (SNAP-Surface 488); label: 3' end held by stalled T7 RNA polymerase.
By Kd is commonly meant a measure of binding affinity in units of concentration. In turn, B1 returned a Kd of 20 ± 1.7 nM. The figure for B2 is roughly 44 nM; for B3 it is 56 ± 10 nM.

On to B4, for which the Kd was found to be 14.3 ± 0.6 nM. The value for B5 was 10.8 ± 0.6 nM; that for B6 was 64 ± 13 nM. B7 registered an equilibrium dissociation constant (Kd) of 68 ± 28 nM.

With B8, the dissociation constant Kd came out at 24.2 ± 2.6 nM.

Take B9: binding was characterised by a dissociation constant (Kd) of 13 ± 0.8 nM. The value for B10 was 6.7 ± 0.4 nM. In turn, B11 displayed a Kd of 20.5 ± 1.8 nM. The figure for B12 is 17.4 ± 0.7 nM. The figure for B13 is 38 ± 8 nM; for B14 it is 56 ± 11 nM. The value for B15 was 46 ± 7 nM. Consider B16, for which binding was put at a Kd of 73 ± 6 nM. The figure for B17 is 38 ± 7 nM. The value for B18 was 8.1 ± 0.5 nM; that for B19 was 12.2 ± 0.6 nM; that for B20 was 100 ± 50 nM. The figure for B21 is 12.3 ± 1.2 nM. For the molecule B22, the affinity, expressed as Kd, was 18 ± 1.7 nM. The figure for B23 is 68 ± 11 nM; for B24 it is 15.6 ± 0.9 nM; for B25 it is 43 ± 11 nM. Molecule B26 returned a Kd of 15.3 ± 1.5 nM.

Consider B27, for which the Kd was determined as 93 ± 30 nM.
